The record followed here is the supplement of paper PMC5998384.

Data set [1] deals with HeLa Kyoto. As to the kind of experiment: solubility in G1/S (NP-40 vs SDS abundance) (log2 ratio); higher = more soluble. As to conditions: cell cycle stage: G1/S.
Data set [2] relates to HeLa Kyoto. As to the kind of experiment: melting temperature (median over replicates), in situ; higher = more thermally stable.
The subject of data set [3] is HeLa Kyoto. As to the kind of experiment: solubility change mitosis vs G1/S (difference of NP-40 vs SDS log2 ratios) (log2 ratio difference); higher = more soluble in mitosis.
Data set [4] has as its system HeLa Kyoto. As to the kind of experiment: thermal stability score vs G1/S (z-score of summed log2 fold changes over temperatures); higher = more thermally stable than in G1/S.
The mark [5] stands for this setting: cell cycle stage: early G1 (4.5 h after nocodazole release).
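Wherever melting temperature (median over replicates), in situ is given: HeLa Kyoto cells synchronized by double thymidine or nocodazole block, proteins quantified by TMT10plex mass spectrometry, three independent biological replicates.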
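Wherever solubility change mitosis vs G1/S (difference of NP-40 vs SDS log2 ratios) is given: synchronized HeLa Kyoto cells (double thymidine block for G1/S, nocodazole release for mitosis), protein amounts in NP-40 versus SDS lysates quantified by mass spectrometry, three biological replicates.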
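Wherever solubility in G1/S (NP-40 vs SDS abundance) is given: HeLa Kyoto cells arrested at G1/S by double thymidine block, proteins quantified by TMT10plex mass spectrometry in mild NP-40 versus SDS extracts, three biological replicates.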
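Wherever thermal stability score vs G1/S (z-score of summed log2 fold changes over temperatures) is given: synchronized HeLa Kyoto cells, proteins quantified by TMT10plex mass spectrometry, three biological replicates, mitosis taken 0.5 h after nocodazole release, G1/S directly after double thymidine block.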

As for “MRWGHHLPRASWGSGFRRALQRPDDRIPFLIHWSWPLQGERPFGPPRAFIRHHGSSVDSAPPPGRHGRLFPSASATEAIQRHRRNLAEWFSRLPREERQFGPTFALDTVHVDPVIRESTPDELLRPPAELALEHQPPQAGLPPLALSQLFNPDACGRRVQTVVLYGTVGTGKSTLVRKMVLDWCYGRLPAFELLIPFSCEDLSSLGPAPASLCQLVAQRYTPLKEVLPLMAAAGSHLLFVLHGLEHLNLDFRLAGTGLCSDPEEPQEPAAIIVNLLRKYMLPQASILVTTRPSAIGRIPSKYVGRYGEICGFSDTNLQKLYFQLRLNQPYCGYAVGGSGVSATPAQRDHLVQMLSRNLEGHHQIAAACFLPSYCWLVCATLHFLHAPTPAGQTLTSIYTSFLRLNFSGETLDSTDPSNLSLMAYAARTMGKLAYEGVSSRKTYFSEEDVCGCLEAGIRTEEEFQLLHIFRRDALRFFLAPCVEPGRAGTFVFTVPAMQEYLAALYIVLGLRKTTLQKVGKEVAELVGRVGEDVSLVLGIMAKLLPLRALPLLFNLIKVVPRVFGRMVGKSREAVAQAMVLEMFREEDYYNDDVLDQMGASILGVEGPRRHPDEPPEDEVFELFPMFMGGLLSAHNRAVLAQLGCPIKNLDALENAQAIKKKLGKLGRQVLPPSELLDHLFFHYEFQNQRFSAEVLSSLRQLNLAGVRMTPVKCTVVAAVLGSGRHALDEVNLASCQLDPAGLRTLLPVFLRARKLGLQLNSLGPEACKDLRDLLLHDQCQITTLRLSNNPLTAAGVAVLMEGLAGNTSVTHLSLLHTGLGDEGLELLAAQLDRNRQLQELNVAYNGAGDTAALALARAAREHPSLELLHLYFNELSSEGRQVLRDLGGAAEGGARVVVSLTEGTAVSEYWSVILSEVQRNLNSWDRARVQRHLELLLRDLEDSRGATLNPWRKAQLLRVEGEVRALLEQLGSSGS [NLRX1]”, the “solubility in G1/S (log2)” value in the data set on HeLa Kyoto [1] is -0.273. The values for the melting temperature with HeLa Kyoto [2] (cell cycle stage: G1/S) and in the data set on HeLa Kyoto [2] (cell cycle stage: mitosis) were 54.3 °C and 54.7 °C, respectively. Also, the “solubility change mitosis (log2)” value in the data set on HeLa Kyoto [3] was 0.0927. Besides, the thermal stability score was -0.577 in the data set on HeLa Kyoto [4] (setting [5]) and -2.13 in the data set on HeLa Kyoto [4] (cell cycle stage: mitosis).
With “MSKGTSSDTSLGRVSRAAFPSPTAAEMAEISRIQYEMEYTEGISQRMRVPEKLKVAPPNADLEQGFQEGVPNASVIMQVPERIVVAGNNEDVSFSRPADLDLIQSTPFKPLALKTPPRVLTLSERPLDFLDLERPPTTPQNEEIRAVGRLKRERSMSENAVRQNGQLVRNDSLWHRSDSAPRNKISRFQAPISAPEYTVTPSPQQARVCPPHMLPEDGANLSSARGILSLIQSSTRRAYQQILDVLDENRRPVLRGGSAAATSNPHHDNVRYGISNIDTTIEGTSDDLTVVDAASLRRQIIKLNRRLQLLEEENKERAKREMVMYSITVAFWLLNSWLWFRR [MFF]”, the “solubility in G1/S (log2)” value in the data set with HeLa Kyoto [1] came out at 0.532. Besides, the melting temperature in the data set with HeLa Kyoto [2] (cell cycle stage: G1/S) amounted to 51.6 °C; in the data set with HeLa Kyoto [2] (cell cycle stage: mitosis) it was 52.6 °C. The “solubility change mitosis (log2)” value with HeLa Kyoto [3] was -0.00278. The thermal stability score in the data set on HeLa Kyoto [4] (setting [5]) stood at 0.544; in the data set on HeLa Kyoto [4] (cell cycle stage: mitosis), 1.39.
Consider “MGFGDLKSPAGLQVLNDYLADKSYIEGYVPSQADVAVFEAVSSPPPADLCHALRWYNHIKSYEKEKASLPGVKKALGKYGPADVEDTTGSGATDSKDDDDIDLFGSDDEEESEEAKRLREERLAQYESKKAKKPALVAKSSILLDVKPWDDETDMAKLEECVRSIQADGLVWGSSKLVPVGYGIKKLQIQCVVEDDKVGTDMLEEQITAFEDYVQSMDVAAFNKI [EEF1B2]”, for which, in the data set on HeLa Kyoto [1], the “solubility in G1/S (log2)” value was 0.522. Besides, the melting temperature in the data set on HeLa Kyoto [2] (cell cycle stage: G1/S) worked out at 50.7 °C; with HeLa Kyoto [2] (cell cycle stage: mitosis) it was 50.6 °C. Moreover, the “solubility change mitosis (log2)” value in the data set with HeLa Kyoto [3] worked out at 0.236. Also, the values for the thermal stability score in the data set with HeLa Kyoto [4] (setting [5]) and in the data set on HeLa Kyoto [4] (cell cycle stage: mitosis) were -1.43 and -1.91, respectively.
“MGKGDPKKPRGKMSSYAFFVQTCREEHKKKHPDASVNFSEFSKKCSERWKTMSAKEKGKFEDMAKADKARYEREMKTYIPPKGETKKKFKDPNAPKRPPSAFFLFCSEYRPKIKGEHPGLSIGDVAKKLGEMWNNTAADDKQPYEKKAAKLKEKYEKDIAAYRAKGKPDAAKKGVVKAEKSKKKKEEEEDEEDEEDEEEEEDEEDEDEEEDDDDE [HMGB1]”: the “solubility in G1/S (log2)” value with HeLa Kyoto [1] is 0.464. For the same sequence, the melting temperature with HeLa Kyoto [2] (cell cycle stage: G1/S) was determined as 55.4 °C; in the data set on HeLa Kyoto [2] (cell cycle stage: mitosis) it was 54.4 °C. Also, in the data set on HeLa Kyoto [3], the “solubility change mitosis (log2)” value is 0.257. Moreover, the thermal stability score in the data set with HeLa Kyoto [4] (setting [5]) worked out at 3.27; in the data set with HeLa Kyoto [4] (cell cycle stage: mitosis), 2.58.
As for “MVEEENIRVVRCGGSELNFRRAVFSADSKYIFCVSGDFVKVYSTVTEECVHILHGHRNLVTGIQLNPNNHLQLYSCSLDGTIKLWDYIDGILIKTFIVGCKLHALFTLAQAEDSVFVIVNKEKPDIFQLVSVKLPKSSSQEVEAKELSFVLDYINQSPKCIAFGNEGVYVAAVREFYLSVYFFKKKTTSRFTLSSSRNKKHAKNNFTCVACHPTEDCIASGHMDGKIRLWRNFYDDKKYTYTCLHWHHDMVMDLAFSVTGTSLLSGGRESVLVEWRDATEKNKEFLPRLGATIEHISVSPAGDLFCTSHSDNKIIIIHRNLEASAVIQGLVKDRSIFTGLMIDPRTKALVLNGKPGHLQFYSLQSDKQLYNLDIIQQEYINDYGLIQIELTKAAFGCFGNWLATVEQRQEKETELELQMKLWMYNKKTQGFILNTKINMPHEDCITALCFCNAEKSEQPTLVTASKDGYFKVWILTDDSDIYKKAVGWTCDFVGSYHKYQATNCCFSEDGSLLAVSFEEIVTIWDSVTWELKCTFCQRAGKIRHLCFGRLTCSKYLLGATENGILCCWNLLSCALEWNAKLNVRVMEPDPNSENIAAISQSSVGSDLFVFKPSEPRPLYIQKGISREKVQWGVFVPRDVPESFTSEAYQWLNRSQFYFLTKSQSLLTFSTKSPEEKLTPTSKQLLAEESLPTTPFYFILGKHRQQQDEKLNETLENELVQLPLTENIPAISELLHTPAHVLPSAAFLCSMFVNSLLLSKETKSAKEIPEDVDMEEEKESEDSDEENDFTEKVQDTSNTGLGEDIIHQLSKSEEKELRKFRKIDYSWIAAL [WDR75]”, the “solubility in G1/S (log2)” value in the data set with HeLa Kyoto [1] is -1.21. Besides, the melting temperature in the data set with HeLa Kyoto [2] (cell cycle stage: G1/S) came to 50 °C; in the data set with HeLa Kyoto [2] (cell cycle stage: mitosis) it was 50.1 °C. Moreover, the “solubility change mitosis (log2)” value with HeLa Kyoto [3] stood at 0.372. The thermal stability score in the data set with HeLa Kyoto [4] (setting [5]) was 1.76; in the data set with HeLa Kyoto [4] (cell cycle stage: mitosis) it was 0.92.
